In patent US20180155451A1 (published 2018):

Target: T1, FcγRIIb (human, UniProt P31994 43-217)
T1 construct: extracellular domain; also called 2b; FcgRIIb
T1 sequence (looked up): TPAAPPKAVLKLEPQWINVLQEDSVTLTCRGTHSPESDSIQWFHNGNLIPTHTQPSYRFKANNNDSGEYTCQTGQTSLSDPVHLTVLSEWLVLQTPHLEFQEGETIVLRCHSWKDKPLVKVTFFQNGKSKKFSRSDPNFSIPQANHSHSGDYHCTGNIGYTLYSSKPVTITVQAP
Test: SPR (Biacore), binding relative to GpH7-A5/GpH7-B3/GpL16-k0 = 100
Method: Analysis of interaction between objective antibody and the FcγR was carried out using Biacore T100 (GE Healthcare). HBS-EP+ (GE Healthcare) was used as the running buffer, and the measurement temperature was set to 25° C. Chips produced by immobilizing the antigen peptide by the amine coupling method to a Series S Sencor Chip CM5 (GE Healthcare), or alternatively, chips produced by allowing preliminarily biotinylated antigen peptides to interact with and immobilize onto a Series S Sensor Chip SA (certified) (GE Healthcare) were used. Antibodies of interest were captured onto an antigen peptide-immobilized chip, and allowed to interact to each FcγR diluted with running buffer. To regenerate and repeatedly use the chip, the antibodies captured on the chip were washed off by reacting 10 mM glycine-HCl, pH 1.5.
The FcγR-binding activity of each antibody was assessed primarily using as an indicator the FcγR-binding activity and dissociation constant for FcγR.

Binder | He/Con_2b
GpH7-A5/GpH7-B3 variant P238_15Y/GpL16-k0 (antibody, human IgG1, kappa, also called He Ab P238_15Y) heavy 1: not shown heavy 2: not shown light: DIVMTQSPLSLPVTPGEPASISCQASESLVHSNRNTYLHWYLQKPGQSPQLLIYKVSNRFSGVPDRFSGSGSGTDFTLKISRVEAEDVGVYYCSQNTHVPPTFGQGTKVEIERTVAAPSVFIFPPSDEQLKSGTASVVCLLNNFYPREAKVQWKVDNALQSGNSQESVTEQDSKDSTYSLSSTLTLSKADYEKHKVYACEVTHQGLSSPVTKSFNRGEC | 218 % of control
GpH7-A5/GpH7-B3 variant P238_16H/GpL16-k0 (antibody, human IgG1, kappa, also called He Ab P238_16H) heavy 1: not shown heavy 2: not shown light: DIVMTQSPLSLPVTPGEPASISCQASESLVHSNRNTYLHWYLQKPGQSPQLLIYKVSNRFSGVPDRFSGSGSGTDFTLKISRVEAEDVGVYYCSQNTHVPPTFGQGTKVEIERTVAAPSVFIFPPSDEQLKSGTASVVCLLNNFYPREAKVQWKVDNALQSGNSQESVTEQDSKDSTYSLSSTLTLSKADYEKHKVYACEVTHQGLSSPVTKSFNRGEC | 115 % of control
GpH7-A5/GpH7-B3 variant P331_07I/GpL16-k0 (antibody, human IgG1, kappa, also called He Ab P331_07I) heavy 1: not shown heavy 2: not shown light: DIVMTQSPLSLPVTPGEPASISCQASESLVHSNRNTYLHWYLQKPGQSPQLLIYKVSNRFSGVPDRFSGSGSGTDFTLKISRVEAEDVGVYYCSQNTHVPPTFGQGTKVEIERTVAAPSVFIFPPSDEQLKSGTASVVCLLNNFYPREAKVQWKVDNALQSGNSQESVTEQDSKDSTYSLSSTLTLSKADYEKHKVYACEVTHQGLSSPVTKSFNRGEC | 114 % of control
GpH7-A5/GpH7-B3 variant S239_03V/GpL16-k0 (antibody, human IgG1, kappa, also called He Ab S239_03V) heavy 1: not shown heavy 2: not shown light: DIVMTQSPLSLPVTPGEPASISCQASESLVHSNRNTYLHWYLQKPGQSPQLLIYKVSNRFSGVPDRFSGSGSGTDFTLKISRVEAEDVGVYYCSQNTHVPPTFGQGTKVEIERTVAAPSVFIFPPSDEQLKSGTASVVCLLNNFYPREAKVQWKVDNALQSGNSQESVTEQDSKDSTYSLSSTLTLSKADYEKHKVYACEVTHQGLSSPVTKSFNRGEC | 108 % of control
GpH7-A5/GpH7-B3 variant S267_19Q/GpL16-k0 (antibody, human IgG1, kappa, also called He Ab S267_19Q) heavy 1: not shown heavy 2: not shown light: DIVMTQSPLSLPVTPGEPASISCQASESLVHSNRNTYLHWYLQKPGQSPQLLIYKVSNRFSGVPDRFSGSGSGTDFTLKISRVEAEDVGVYYCSQNTHVPPTFGQGTKVEIERTVAAPSVFIFPPSDEQLKSGTASVVCLLNNFYPREAKVQWKVDNALQSGNSQESVTEQDSKDSTYSLSSTLTLSKADYEKHKVYACEVTHQGLSSPVTKSFNRGEC | 218 % of control
GpH7-A5/GpH7-B3 variant S267_01G/GpL16-k0 (antibody, human IgG1, kappa, also called He Ab S267_01G) heavy 1: not shown heavy 2: not shown light: DIVMTQSPLSLPVTPGEPASISCQASESLVHSNRNTYLHWYLQKPGQSPQLLIYKVSNRFSGVPDRFSGSGSGTDFTLKISRVEAEDVGVYYCSQNTHVPPTFGQGTKVEIERTVAAPSVFIFPPSDEQLKSGTASVVCLLNNFYPREAKVQWKVDNALQSGNSQESVTEQDSKDSTYSLSSTLTLSKADYEKHKVYACEVTHQGLSSPVTKSFNRGEC | 105 % of control
GpH7-A5/GpH7-B3 variant P271_09D/GpL16-k0 (antibody, human IgG1, kappa, also called He Ab P271_09D) heavy 1: not shown heavy 2: not shown light: DIVMTQSPLSLPVTPGEPASISCQASESLVHSNRNTYLHWYLQKPGQSPQLLIYKVSNRFSGVPDRFSGSGSGTDFTLKISRVEAEDVGVYYCSQNTHVPPTFGQGTKVEIERTVAAPSVFIFPPSDEQLKSGTASVVCLLNNFYPREAKVQWKVDNALQSGNSQESVTEQDSKDSTYSLSSTLTLSKADYEKHKVYACEVTHQGLSSPVTKSFNRGEC | 120 % of control
GpH7-A5/GpH7-B3 variant S239_05P/GpL16-k0 (antibody, human IgG1, kappa, also called He Ab S239_05P) heavy 1: not shown heavy 2: not shown light: DIVMTQSPLSLPVTPGEPASISCQASESLVHSNRNTYLHWYLQKPGQSPQLLIYKVSNRFSGVPDRFSGSGSGTDFTLKISRVEAEDVGVYYCSQNTHVPPTFGQGTKVEIERTVAAPSVFIFPPSDEQLKSGTASVVCLLNNFYPREAKVQWKVDNALQSGNSQESVTEQDSKDSTYSLSSTLTLSKADYEKHKVYACEVTHQGLSSPVTKSFNRGEC | 102 % of control
GpH7-A5/GpH7-B3 variant P331_15Y/GpL16-k0 (antibody, human IgG1, kappa, also called He Ab P331_15Y) heavy 1: not shown heavy 2: not shown light: DIVMTQSPLSLPVTPGEPASISCQASESLVHSNRNTYLHWYLQKPGQSPQLLIYKVSNRFSGVPDRFSGSGSGTDFTLKISRVEAEDVGVYYCSQNTHVPPTFGQGTKVEIERTVAAPSVFIFPPSDEQLKSGTASVVCLLNNFYPREAKVQWKVDNALQSGNSQESVTEQDSKDSTYSLSSTLTLSKADYEKHKVYACEVTHQGLSSPVTKSFNRGEC | 114 % of control
GpH7-A5/GpH7-B3 variant S239_10E/GpL16-k0 (antibody, human IgG1, kappa, also called He Ab S239_10E) heavy 1: not shown heavy 2: not shown light: DIVMTQSPLSLPVTPGEPASISCQASESLVHSNRNTYLHWYLQKPGQSPQLLIYKVSNRFSGVPDRFSGSGSGTDFTLKISRVEAEDVGVYYCSQNTHVPPTFGQGTKVEIERTVAAPSVFIFPPSDEQLKSGTASVVCLLNNFYPREAKVQWKVDNALQSGNSQESVTEQDSKDSTYSLSSTLTLSKADYEKHKVYACEVTHQGLSSPVTKSFNRGEC | 181 % of control
GpH7-A5/GpH7-B3 variant P331_16H/GpL16-k0 (antibody, human IgG1, kappa, also called He Ab P331_16H) heavy 1: not shown heavy 2: not shown light: DIVMTQSPLSLPVTPGEPASISCQASESLVHSNRNTYLHWYLQKPGQSPQLLIYKVSNRFSGVPDRFSGSGSGTDFTLKISRVEAEDVGVYYCSQNTHVPPTFGQGTKVEIERTVAAPSVFIFPPSDEQLKSGTASVVCLLNNFYPREAKVQWKVDNALQSGNSQESVTEQDSKDSTYSLSSTLTLSKADYEKHKVYACEVTHQGLSSPVTKSFNRGEC | 116 % of control
GpH7-A5/GpH7-B3 variant P238_19Q/GpL16-k0 (antibody, human IgG1, kappa, also called He Ab P238_19Q) heavy 1: not shown heavy 2: not shown light: DIVMTQSPLSLPVTPGEPASISCQASESLVHSNRNTYLHWYLQKPGQSPQLLIYKVSNRFSGVPDRFSGSGSGTDFTLKISRVEAEDVGVYYCSQNTHVPPTFGQGTKVEIERTVAAPSVFIFPPSDEQLKSGTASVVCLLNNFYPREAKVQWKVDNALQSGNSQESVTEQDSKDSTYSLSSTLTLSKADYEKHKVYACEVTHQGLSSPVTKSFNRGEC | 110 % of control
GpH7-A5/GpH7-B3 variant S267_06M/GpL16-k0 (antibody, human IgG1, kappa, also called He Ab S267_06M) heavy 1: not shown heavy 2: not shown light: DIVMTQSPLSLPVTPGEPASISCQASESLVHSNRNTYLHWYLQKPGQSPQLLIYKVSNRFSGVPDRFSGSGSGTDFTLKISRVEAEDVGVYYCSQNTHVPPTFGQGTKVEIERTVAAPSVFIFPPSDEQLKSGTASVVCLLNNFYPREAKVQWKVDNALQSGNSQESVTEQDSKDSTYSLSSTLTLSKADYEKHKVYACEVTHQGLSSPVTKSFNRGEC | 210 % of control
GpH7-A5/GpH7-B3 variant P331_20W/GpL16-k0 (antibody, human IgG1, kappa, also called He Ab P331_20W) heavy 1: not shown heavy 2: not shown light: DIVMTQSPLSLPVTPGEPASISCQASESLVHSNRNTYLHWYLQKPGQSPQLLIYKVSNRFSGVPDRFSGSGSGTDFTLKISRVEAEDVGVYYCSQNTHVPPTFGQGTKVEIERTVAAPSVFIFPPSDEQLKSGTASVVCLLNNFYPREAKVQWKVDNALQSGNSQESVTEQDSKDSTYSLSSTLTLSKADYEKHKVYACEVTHQGLSSPVTKSFNRGEC | 111 % of control
GpH7-A5/GpH7-B3 variant S239_06M/GpL16-k0 (antibody, human IgG1, kappa, also called He Ab S239_06M) heavy 1: not shown heavy 2: not shown light: DIVMTQSPLSLPVTPGEPASISCQASESLVHSNRNTYLHWYLQKPGQSPQLLIYKVSNRFSGVPDRFSGSGSGTDFTLKISRVEAEDVGVYYCSQNTHVPPTFGQGTKVEIERTVAAPSVFIFPPSDEQLKSGTASVVCLLNNFYPREAKVQWKVDNALQSGNSQESVTEQDSKDSTYSLSSTLTLSKADYEKHKVYACEVTHQGLSSPVTKSFNRGEC | 101 % of control
GpH7-A5/GpH7-B3 variant P271_10E/GpL16-k0 (antibody, human IgG1, kappa, also called He Ab P271_10E) heavy 1: not shown heavy 2: not shown light: DIVMTQSPLSLPVTPGEPASISCQASESLVHSNRNTYLHWYLQKPGQSPQLLIYKVSNRFSGVPDRFSGSGSGTDFTLKISRVEAEDVGVYYCSQNTHVPPTFGQGTKVEIERTVAAPSVFIFPPSDEQLKSGTASVVCLLNNFYPREAKVQWKVDNALQSGNSQESVTEQDSKDSTYSLSSTLTLSKADYEKHKVYACEVTHQGLSSPVTKSFNRGEC | 109 % of control
GpH7-A5/GpH7-B3 variant P238_20W/GpL16-k0 (antibody, human IgG1, kappa, also called He Ab P238_20W) heavy 1: not shown heavy 2: not shown light: DIVMTQSPLSLPVTPGEPASISCQASESLVHSNRNTYLHWYLQKPGQSPQLLIYKVSNRFSGVPDRFSGSGSGTDFTLKISRVEAEDVGVYYCSQNTHVPPTFGQGTKVEIERTVAAPSVFIFPPSDEQLKSGTASVVCLLNNFYPREAKVQWKVDNALQSGNSQESVTEQDSKDSTYSLSSTLTLSKADYEKHKVYACEVTHQGLSSPVTKSFNRGEC | 123 % of control
GpH7-A5/GpH7-B3 variant P331_06M/GpL16-k0 (antibody, human IgG1, kappa, also called He Ab P331_06M) heavy 1: not shown heavy 2: not shown light: DIVMTQSPLSLPVTPGEPASISCQASESLVHSNRNTYLHWYLQKPGQSPQLLIYKVSNRFSGVPDRFSGSGSGTDFTLKISRVEAEDVGVYYCSQNTHVPPTFGQGTKVEIERTVAAPSVFIFPPSDEQLKSGTASVVCLLNNFYPREAKVQWKVDNALQSGNSQESVTEQDSKDSTYSLSSTLTLSKADYEKHKVYACEVTHQGLSSPVTKSFNRGEC | 102 % of control
GpH7-A5/GpH7-B3 variant P331_10E/GpL16-k0 (antibody, human IgG1, kappa, also called He Ab P331_10E) heavy 1: not shown heavy 2: not shown light: DIVMTQSPLSLPVTPGEPASISCQASESLVHSNRNTYLHWYLQKPGQSPQLLIYKVSNRFSGVPDRFSGSGSGTDFTLKISRVEAEDVGVYYCSQNTHVPPTFGQGTKVEIERTVAAPSVFIFPPSDEQLKSGTASVVCLLNNFYPREAKVQWKVDNALQSGNSQESVTEQDSKDSTYSLSSTLTLSKADYEKHKVYACEVTHQGLSSPVTKSFNRGEC | 116 % of control
GpH7-A5/GpH7-B3 variant P331_03V/GpL16-k0 (antibody, human IgG1, kappa, also called He Ab P331_03V) heavy 1: not shown heavy 2: not shown light: DIVMTQSPLSLPVTPGEPASISCQASESLVHSNRNTYLHWYLQKPGQSPQLLIYKVSNRFSGVPDRFSGSGSGTDFTLKISRVEAEDVGVYYCSQNTHVPPTFGQGTKVEIERTVAAPSVFIFPPSDEQLKSGTASVVCLLNNFYPREAKVQWKVDNALQSGNSQESVTEQDSKDSTYSLSSTLTLSKADYEKHKVYACEVTHQGLSSPVTKSFNRGEC | 119 % of control
